PMC13065467, “Assembly and phosphoregulatory mechanisms of the budding yeast outer kinetochore KMN complex” (The Journal of Cell Biology, 2026)
Ends that are not written are not given here.

Key:
[1] = system: KlMis12c^Mtw1c containing an intact Dsn1^AI; details: lower concentrations (50 nM) for CENP-U^Ame1, unphosphorylated complex, ref Dimitrova et al., 2016; cited from earlier work
[2] = biological target: KlMis12c^Mtw1c with phosphomimetic mutations of Dsn1^AI; details: fluorescence polarization; K. lactis complex with phosphomimetic mutations (Asp mutants of S213/S223); ref Dimitrova et al., 2016; cited from earlier work
Description: We further investigated the effect of Dsn1^AI on the interaction between K^HB-RWDM (which has wild-type unphosphorylated Dsn1^AI) and a peptide modeled on the N-terminal 38 residues of CENP-C^Mif2 (CENP-C^Mif2_1–38). […] Also similar to Dimitrova et al. (2016), using ITC we found no binding of CENP-UAme1_1-33 to the unphosphorylated KM. […] We cannot accoun ... || (+ 2 further places)

[3] = system: T1, K^HB-RWDM^Dsn1Δ257 (Knl1c:Mis12c^Mtw1c complex, Knl1^Spc105 residues 1–444 and Dsn1 residues 1–257 deleted); assay: ITC, Dsn1 peptide titrated into K^HB-RWDM^Dsn1Δ257; format: binding, S. cerevisiae
T1 construct: made in house; host or cells: High-5 insect cells (baculovirus)
Method: Dsn1^228–254 and Dsn1^228–254,S240E,S250E peptides were synthesized by Alta BioScience with N-terminal acetylation and C-terminal GSAW extension and amidation. The final sequence of Dsn1^228–254 was […], and Dsn1^228–254,S240E,S250E was […]. All protein complexes and peptides used in a given experiment were dialyzed for a minimum of 16 h and/or buffer-exchanged by size-exclusion chromatography into the same batch of ITC buffer (25 mM HEPES, pH 7.5, 100 mM NaCl, 1 mM TCEP). All experiments were performed using an Auto-iTC200 instrument (Malvern Instruments) at 25°C. In each experiment, 360 μl of protein complex was pipetted into the calorimeter cell. The protein complex loaded into the calorimeter cell contained Knl1c:Mis12c^Mtw1c with Knl1^Spc105_HB-RWD and Dsn1^Δ1–257 and either wild-type Mis12^Mtw1 (K^HB-RWDM ^Dsn1Δ257) or Mis12^Mtw1_E69A,E73A,E77A mutant (K^HB-RWDM ^Dsn1Δ257_Mis12-3A). Wild-type constructs of all other Knl1c and Mis12c^Mtw1c subunits were included. Titration of either the Dsn1^228–254 or Dsn1^228-254,S240E,S250E peptide into the cell was then performed by an initial injection of 0.5 μl, followed by 19 further injections of 2.0 μl each. […] Titrations were performed in duplicate or triplicate, and reported KD and n values were calculated as an average from all replicate results.

[4] = biological target: Knl1c:Mis12c^Mtw1c complex K^HB-RWDM^2E (full-length Dsn1 with S240E and S250E phosphomimetic mutations), P53148;Q04431;P40568;P39731;P47149;Q12143; assay: ITC; details: Syringe: CENP-U^Ame1_1-33-Mut (0.32 mM); Cell: K^HB-RWDM^2E (0.016 mM); parent: 1.35 ± 0.08
[5] = biological target: T2, Knl1c:Mis12c^Mtw1c complex K^HB-RWDM^2E (full-length Dsn1 with S240E and S250E phosphomimetic mutations) (S. cerevisiae, UniProt P53148 445-917; Q04431 1-385; P40568 1-576; P39731 1-289; P47149 1-201; Q12143 …, S240E | S250E); assay: ITC; peptide titrated into the complex in the cell; 20°C; 25 mM HEPES pH 7.5, 100 mM NaCl, 0.5 mM TCEP; details: both partners purified
T2 construct: Knl1^Spc105_HB-RWD: Knl1^Spc105, S. cerevisiae S288c, residues 445-917; ZWINT^Kre28, S. cerevisiae S288c; no truncation stated; Dsn1^S240E,S250E: full-length Dsn1, S. cerevisiae S288c, with phosphomimetic mutations; Mis12^Mtw1, S. cerevisiae S288c; Nnf1, S. cerevisiae S288c; Nsl1, S. cerevisiae S288c; also called KM^2E; K^HB-RWDM^S240E,S250E; source: High-5 insect cells (baculovirus), purified …

[6] = biological target: T3, S. cerevisiae Ndc80 complex (Ndc80, Nuf2, Spc24, Spc25) (S. cerevisiae, UniProt P40460 1-691; P33895 1-451; Q04477 1-213; P40014 1-221); assay: SEC; 4 μM Mis12c^Mtw1c (wild type or mutant) mixed with 4 μM Ndc80c in KMN buffer, 30 min on ice; Superose 6 3.2/300; fractions on SDS-PAGE; details: both partners purified
T3 construct: Ndc80, S. cerevisiae S288c; Nuf2, S. cerevisiae S288c; Spc24, S. cerevisiae S288c; Spc25, S. cerevisiae S288c; The Twin-Strep tag on Nuf2 is TEV cleavable; no cleavage is described; source: High-5 insect cells (two baculoviruses), purified (Strep-Tactin, Resource Q, SEC); copies: + + +
T3 sequence (P40460 whole entry, chain 1 of 4): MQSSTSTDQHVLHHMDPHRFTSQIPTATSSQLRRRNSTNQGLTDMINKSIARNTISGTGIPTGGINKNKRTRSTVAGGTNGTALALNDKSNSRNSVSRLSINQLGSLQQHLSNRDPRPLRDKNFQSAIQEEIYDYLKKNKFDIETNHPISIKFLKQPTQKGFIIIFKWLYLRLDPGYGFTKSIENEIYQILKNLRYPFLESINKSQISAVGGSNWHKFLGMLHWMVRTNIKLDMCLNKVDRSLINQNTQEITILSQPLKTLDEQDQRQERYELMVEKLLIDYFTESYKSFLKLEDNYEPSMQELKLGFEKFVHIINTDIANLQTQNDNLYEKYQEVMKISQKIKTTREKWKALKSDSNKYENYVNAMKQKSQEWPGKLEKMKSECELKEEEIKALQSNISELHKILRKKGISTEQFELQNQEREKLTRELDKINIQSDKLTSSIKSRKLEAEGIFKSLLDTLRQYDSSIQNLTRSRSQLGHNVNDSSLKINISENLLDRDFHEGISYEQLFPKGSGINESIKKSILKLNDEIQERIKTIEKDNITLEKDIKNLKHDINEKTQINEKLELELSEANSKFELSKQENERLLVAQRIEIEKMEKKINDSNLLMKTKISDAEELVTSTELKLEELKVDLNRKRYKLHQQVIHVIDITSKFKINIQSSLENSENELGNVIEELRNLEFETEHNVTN
T3 sequence (P33895 whole entry, chain 2 of 4): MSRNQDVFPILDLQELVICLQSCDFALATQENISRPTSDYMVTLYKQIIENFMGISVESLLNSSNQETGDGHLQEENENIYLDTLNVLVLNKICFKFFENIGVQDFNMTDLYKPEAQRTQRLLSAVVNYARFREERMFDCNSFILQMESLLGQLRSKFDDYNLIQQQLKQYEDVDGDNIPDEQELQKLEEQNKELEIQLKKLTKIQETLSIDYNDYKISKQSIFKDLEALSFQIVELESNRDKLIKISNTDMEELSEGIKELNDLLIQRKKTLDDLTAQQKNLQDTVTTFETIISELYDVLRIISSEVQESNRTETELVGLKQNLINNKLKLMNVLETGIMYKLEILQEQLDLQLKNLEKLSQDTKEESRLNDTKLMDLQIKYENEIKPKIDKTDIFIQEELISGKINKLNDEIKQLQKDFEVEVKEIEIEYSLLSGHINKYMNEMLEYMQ
T3 sequence (Q04477 whole entry, chain 3 of 4): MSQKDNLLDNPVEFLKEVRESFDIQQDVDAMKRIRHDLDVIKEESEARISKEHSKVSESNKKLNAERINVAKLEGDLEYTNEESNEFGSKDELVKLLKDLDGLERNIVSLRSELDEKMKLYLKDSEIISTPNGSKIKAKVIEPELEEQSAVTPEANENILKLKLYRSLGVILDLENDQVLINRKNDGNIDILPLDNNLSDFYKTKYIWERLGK
T3 sequence (P40014 whole entry, chain 4 of 4): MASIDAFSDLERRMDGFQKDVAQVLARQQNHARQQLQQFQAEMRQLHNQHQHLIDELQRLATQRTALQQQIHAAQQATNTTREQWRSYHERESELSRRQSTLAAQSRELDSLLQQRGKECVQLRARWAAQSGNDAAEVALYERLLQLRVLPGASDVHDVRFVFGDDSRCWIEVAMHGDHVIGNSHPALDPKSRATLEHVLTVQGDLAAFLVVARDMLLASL

T2 sequence (P53148 445-917, chain 1 of 2): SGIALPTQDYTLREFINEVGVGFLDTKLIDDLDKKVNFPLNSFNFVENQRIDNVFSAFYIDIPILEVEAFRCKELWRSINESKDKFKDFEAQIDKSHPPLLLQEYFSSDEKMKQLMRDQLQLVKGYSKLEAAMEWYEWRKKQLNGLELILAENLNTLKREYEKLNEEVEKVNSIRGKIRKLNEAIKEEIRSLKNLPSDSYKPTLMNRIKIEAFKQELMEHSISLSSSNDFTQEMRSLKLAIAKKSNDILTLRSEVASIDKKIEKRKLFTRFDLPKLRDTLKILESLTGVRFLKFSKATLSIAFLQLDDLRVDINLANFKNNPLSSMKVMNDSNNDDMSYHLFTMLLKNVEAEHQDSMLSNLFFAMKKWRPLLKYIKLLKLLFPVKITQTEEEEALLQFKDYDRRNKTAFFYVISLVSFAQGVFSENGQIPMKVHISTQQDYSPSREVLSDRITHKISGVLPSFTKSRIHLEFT
T2 sequence (Q04431 whole entry, chain 2 of 2, the tested form may be a part): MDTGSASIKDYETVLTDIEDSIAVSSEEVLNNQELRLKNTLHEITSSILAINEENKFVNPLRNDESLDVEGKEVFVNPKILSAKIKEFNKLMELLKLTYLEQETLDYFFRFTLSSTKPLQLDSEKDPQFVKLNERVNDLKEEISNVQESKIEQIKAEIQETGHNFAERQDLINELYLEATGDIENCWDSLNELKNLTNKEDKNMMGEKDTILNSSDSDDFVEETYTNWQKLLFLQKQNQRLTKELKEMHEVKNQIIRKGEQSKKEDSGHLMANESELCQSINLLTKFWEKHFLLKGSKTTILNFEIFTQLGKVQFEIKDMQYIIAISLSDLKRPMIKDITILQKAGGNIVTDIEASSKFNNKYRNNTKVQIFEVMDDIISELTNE
T1 sequence (Q04431 whole entry, stated change not applied, one chain of several, further chain, the tested form may be a part): as the sequence (Q04431 whole entry, chain 2 of 2, the tested form may be a part) above
T1 sequence (P53148 445-917, stated change not applied, one chain of several, further chain): as the sequence (P53148 445-917, chain 1 of 2) above

In the case of “K. lactis CENP-U^Ame1_1-25: residues 1–25 of K. lactis CENP-U^Ame1, reported by Dimitrova et al., 2016 (MDALKQRHLKLLYRQRGSASRTIDY; UniProt Q6CUE5 1-25, looked up, fragment)”, the “binding (fluorescence polarization)” value [1] is listed as “did not interact” and the Kd [2] is listed as 1480 nM.

For “Ac-PHYIQRTRERKKEIGSQRGRRLEMLASGSAW-NH2 [Dsn1^228-254,S240E,S250E]”, the “decrease of affinity versus wild-type peptide” value ([3]; ratio of ITC KD values, S240E,S250E peptide versus wild-type Dsn1^228–254) was “fivefold” and the Kd ([3]; read-out: KD (ITC) of phosphomimetic Dsn1 peptide, ITC, 25°C, 25 mM HEPES pH 7.5, 100 mM NaCl, 1 mM TCEP, syringe 0.35 mM, cell 0.025 mM, average from two experiments (technical repeats)) was 6000 nM.

For “CENP-C^Mif2_1-41: CENP-C^Mif2 peptide (residues 1-41) reported by Dimitrova et al., 2016 (MDYMKLGLKSRKTGIDVKQDIPKDEYSMENIDDFFKDDETS; UniProt P35201 1-41, looked up, fragment)”, the “binding (fluorescence polarization)” value [1] is listed as “no binding” and the Kd [2] is listed as 1750 nM.

For “CENP-U^Ame1_1–33 peptide (residues 1–33 of CENP-U^Ame1) D25A; V27A; I28A; F29A; T31A”, the other: N (ITC stoichiometry) [4] was 1.34.

B1: CENP-C^Mif2_1–38 peptide (N-terminal 38 residues of CENP-C^Mif2) (peptide)
peptide: MDYMKLGLKSRKTGIDVKQDIPKDEYSMENIDDFFKDD-NH2
notes: CENP-C^Mif2, S. cerevisiae, residues 1-38; source: synthetic peptide (Alta BioScience)
With B1 the Kd [5] was 980 nM.

B2: Isolated Mis12c^Mtw1c, full-length and wild-type proteins (Dsn1, Nsl1, Mis12^Mtw1, Nnf1) (complex, S. cerevisiae)
chain 1: MSLEPTQTVSGTPPMLHQRTHKQVYPLRMETIPILESDSKATLQSNEPTQKDEEETEYFENKQSVSNLSPDLKFKRHKNKHIQGFPTLGERLDNLQDIKKAKRVENFNSSAPIADDNHSGDATANATANATANATANVNASAMPAPYMPYYYYYHPMNAPTPAMIPYPGSPMHSIMPNSSLQPFYSQPTAAGGPDMTTPQNISSSQQLLPAPQLFPYGSFHQQQLQQPHYIQRTRERKKSIGSQRGRRLSMLASQANGGSTIISPHKDIPEEDFYTVVGNASFGKNLQIRQLFNWCLMRSLHKLELKAKNQEEEGELEHLTKKSKLESTKAETDYVDPKRLAMVIIKEFVDDLKKDHIAIDWEDEEKYEDEDEEKILDNTENYDDTELRQLFQENDDDDDDDDEVDYSEIQRSRRKFSERRKALPKEPKKLLPNSKNVENTKNLSILTSKVNAIKNEVKEWAVTLDTSRPDLEWQELTSFSSQPLEPLSDTEEPDLAIADVETKLETKVDELRYQSHILNSHSLALNEITNSKVNKLNIETMRKISSETDDDHSQVINPQQLLKGLSLSFSKKLDL
chain 2: MSQGQSKKLDVTVEQLRSIYHQFHDILEEKTDLHLPKKEYDDDAVRREVQIQLQEFLLSAMTMASKSLEVVNADTVGKTVKQLIMESQEKYMEPFDLDLNEQVRKMYQEWEDETVKVAQLRQTGPAKINEVYNNSKDEYLAQLDGRIGVLQARMMQQQSADHDDSTDDADDHINWEHIKQDYVASLNELYQTQQDLPKVRYNVEKVKRLMDFLEED
chain 3: MSAPTMRSTSILTEHLGYPPISLVDDIINAVNEIMYKCTAAMEKYLLSKSKIGEEDYGEEIKSGVAKLESLLENSVDKNFDKLELYVLRNVLRIPEEYLDANVFRLENQKDLVIVDENELKKSEEKLREKVNDVELAFKKNEMLLKRVTKVKRLLFTIRGFKQKLNELLKCKDDVQLQKILESLKPIDDTMTLLTDSLRKLYVDSESTSSTEEVEALLQRLKTNGKQNNKDFRTRYIDIRTNNVLRKLGLLGDKEDEKQSAKPDARTQAGDIVSIDIEEPQLDLLDDVL
chain 4: MVNSHGIRYIRLKQVFNRALDQSISKLQSWDKVSSCFPQYVNSKQGAINVANCQRQLTEFWTELCQREFKEIMEERNVEQKLNELDELILEAKERYTDRDQDEVNKGPAIDELSSKELVECHLYSQRMHAIHEIDERLAKVNEMNDQLAQELKDLETQVEVEKNEIGKMYDEYLGSHTDQPANVLLVQSLNDMVLELKENY
notes: Dsn1, S. cerevisiae S288c; Nsl1, S. cerevisiae S288c; Mis12^Mtw1, S. cerevisiae S288c; Nnf1, S. cerevisiae S288c; source: High-5 insect cells (two baculoviruses), purified (Strep-Tactin, SEC); copies: + + +
B2: binds [6].

B3: Mis12c^Mtw1c_Nnf1ΔC (isolated Mis12c^Mtw1c with Nnf1 residues 180–201 deleted) (complex, S. cerevisiae)
chain 1: B2 chain 1
chain 2: B2 chain 2
chain 3: B2 chain 3
chain 4: MVNSHGIRYIRLKQVFNRALDQSISKLQSWDKVSSCFPQYVNSKQGAINVANCQRQLTEFWTELCQREFKEIMEERNVEQKLNELDELILEAKERYTDRDQDEVNKGPAIDELSSKELVECHLYSQRMHAIHEIDERLAKVNEMNDQLAQELKDLETQVEVEKNEIGKMYDEYLGSHTD
notes: Dsn1, S. cerevisiae S288c; Nsl1, S. cerevisiae S288c; Mis12^Mtw1, S. cerevisiae S288c; Nnf1^Δ180-C: Nnf1, S. cerevisiae S288c, residues 180-201 deleted; also called Nnf1^Δ180-C; source: High-5 insect cells (two baculoviruses), purified (Strep-Tactin, SEC); copies: + + +
B3: binds [6].

B4: Mis12c^Mtw1c_Mis12ΔC (isolated Mis12c^Mtw1c with Mis12^Mtw1 residues 272–289 deleted) (complex, S. cerevisiae)
chain 1: B2 chain 1
chain 2: B2 chain 2
chain 3: MSAPTMRSTSILTEHLGYPPISLVDDIINAVNEIMYKCTAAMEKYLLSKSKIGEEDYGEEIKSGVAKLESLLENSVDKNFDKLELYVLRNVLRIPEEYLDANVFRLENQKDLVIVDENELKKSEEKLREKVNDVELAFKKNEMLLKRVTKVKRLLFTIRGFKQKLNELLKCKDDVQLQKILESLKPIDDTMTLLTDSLRKLYVDSESTSSTEEVEALLQRLKTNGKQNNKDFRTRYIDIRTNNVLRKLGLLGDKEDEKQSAKPDARTQAGD
chain 4: B2 chain 4
notes: Dsn1, S. cerevisiae S288c; Nsl1, S. cerevisiae S288c; Nnf1, S. cerevisiae S288c; also called Mis12^Mtw1_Δ272-C; source: High-5 insect cells (two baculoviruses), purified (Strep-Tactin, SEC); copies: + + +
B4: binds [6].

B5: Mis12c^Mtw1c_Mis12ΔC-Nnf1ΔC (isolated Mis12c^Mtw1c with Mis12^Mtw1 residues 272–289 and Nnf1 residues 180–201 deleted) (complex, S. cerevisiae)
chain 1: B2 chain 1
chain 2: B2 chain 2
chain 3: B4 chain 3
chain 4: B3 chain 4
notes: Dsn1, S. cerevisiae S288c; Nsl1, S. cerevisiae S288c; Nnf1^Δ180-C: Nnf1, S. cerevisiae S288c, residues 180-201 deleted; source: High-5 insect cells (two baculoviruses), purified (Strep-Tactin, SEC); copies: + + +
B5: binds [6].

B6: CENP-U^Ame1_1–33 peptide (residues 1–33 of CENP-U^Ame1) (peptide)
peptide: MDRDTKLAFRLRGSHSRRTDDIDDDVIVFKTPNW-NH2
notes: CENP-U^Ame1, S. cerevisiae, residues 1-33; added C-terminal tryptophan after residue 33 (so in the source); source: synthetic peptide (Alta BioScience)
With B6 the Kd [5] was 240 nM.

B7: CENP-U^Ame1_1-33-Mut peptide (CENP-U^Ame1_1-33 with Ala substitutions) (peptide)
peptide: MDRDTKLAFRLRGSHSRRTDDIDDAAAVAKAPNW-NH2
notes: CENP-U^Ame1, S. cerevisiae, residues 1-33 with five Ala substitutions; added C-terminal tryptophan after residue 33 (so in the source); also called CENP-U^Ame1_1-33 mutant; source: synthetic peptide (Alta BioScience)
For B7, the Kd [5] was 1310 nM.
